This is an account of results in publication PMC10896721.

The target in assay [1] is mouse GLP-1R (mouse) (UniProt O35659).
Assay [2] has as its target cynomolgus monkey GLP-1R (cynomolgus monkey).
Assay [3] deals with human GLP-1R (glucagon-like peptide-1 receptor) (human) (UniProt P43220).
Assay [4] has as its target T1, human GIPR (glucose-dependent insulinotropic polypeptide receptor) (human) (UniProt P48546).
T1 sequence: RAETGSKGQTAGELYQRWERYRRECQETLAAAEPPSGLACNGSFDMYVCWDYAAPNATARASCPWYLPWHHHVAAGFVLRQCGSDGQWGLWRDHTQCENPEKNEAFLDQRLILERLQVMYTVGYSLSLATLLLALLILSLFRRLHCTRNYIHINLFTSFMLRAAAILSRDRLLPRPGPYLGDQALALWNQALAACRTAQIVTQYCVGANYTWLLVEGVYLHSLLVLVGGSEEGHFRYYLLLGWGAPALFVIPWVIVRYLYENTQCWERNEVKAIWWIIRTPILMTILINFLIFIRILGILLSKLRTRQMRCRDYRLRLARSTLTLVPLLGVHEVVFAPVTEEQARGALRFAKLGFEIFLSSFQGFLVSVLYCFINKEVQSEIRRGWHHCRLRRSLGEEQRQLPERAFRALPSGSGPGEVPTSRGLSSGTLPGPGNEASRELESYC

Chain of AMG 133 (maridebart cafraglutide) (VH): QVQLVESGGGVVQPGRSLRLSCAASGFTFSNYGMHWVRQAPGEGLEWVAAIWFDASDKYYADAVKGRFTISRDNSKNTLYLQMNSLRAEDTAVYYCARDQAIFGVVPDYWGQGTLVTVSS
Chain of AMG 133 (maridebart cafraglutide) (VL): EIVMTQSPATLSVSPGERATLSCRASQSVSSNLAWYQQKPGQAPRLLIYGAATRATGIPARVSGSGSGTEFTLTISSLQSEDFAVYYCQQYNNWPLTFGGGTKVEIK
Chain of UniProt P43220 (P43220 24-463): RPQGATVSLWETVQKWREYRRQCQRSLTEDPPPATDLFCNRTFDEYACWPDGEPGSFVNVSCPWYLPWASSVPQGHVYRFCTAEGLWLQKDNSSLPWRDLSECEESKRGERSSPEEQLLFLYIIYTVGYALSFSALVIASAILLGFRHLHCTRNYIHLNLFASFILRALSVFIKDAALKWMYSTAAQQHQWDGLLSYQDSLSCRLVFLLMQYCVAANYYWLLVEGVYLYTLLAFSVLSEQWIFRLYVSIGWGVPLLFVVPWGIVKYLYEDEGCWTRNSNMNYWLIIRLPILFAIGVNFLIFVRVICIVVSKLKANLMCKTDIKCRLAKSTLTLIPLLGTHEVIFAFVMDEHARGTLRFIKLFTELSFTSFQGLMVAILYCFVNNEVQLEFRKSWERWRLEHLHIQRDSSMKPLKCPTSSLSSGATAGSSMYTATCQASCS
Chain of UniProt O35659 (O35659 22-463): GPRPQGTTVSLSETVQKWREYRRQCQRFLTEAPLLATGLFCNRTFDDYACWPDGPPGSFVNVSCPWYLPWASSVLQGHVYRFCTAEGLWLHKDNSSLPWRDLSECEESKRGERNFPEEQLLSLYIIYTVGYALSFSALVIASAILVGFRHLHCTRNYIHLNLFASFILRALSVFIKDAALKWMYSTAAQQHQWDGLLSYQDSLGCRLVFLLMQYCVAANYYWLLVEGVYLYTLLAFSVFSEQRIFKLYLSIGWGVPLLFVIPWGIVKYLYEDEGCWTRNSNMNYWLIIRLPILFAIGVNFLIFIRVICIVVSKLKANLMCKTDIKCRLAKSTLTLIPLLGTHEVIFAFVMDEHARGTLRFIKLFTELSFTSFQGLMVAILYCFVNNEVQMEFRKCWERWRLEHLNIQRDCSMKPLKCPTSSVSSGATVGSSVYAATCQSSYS

As to AMG 133 (maridebart cafraglutide), in assay [1], the EC50 of cAMP accumulation in CHO-K1 cells expressing mouse GLP-1R stood at 0.123 nM. The same substance showed an EC50 of cAMP accumulation in CHO-AM1D cells expressing cynomolgus monkey GLP-1R in assay [2] of 0.0057 nM. Also, the EC50 of cAMP accumulation in CHO-K1 cells expressing human GLP-1R in assay [3] came out at 0.0244 nM.
Consider “Native GIP (glucose-dependent insulinotropic polypeptide) (from UniProt P09681 52-93) (ligand)”, for which the EC50 of cAMP accumulation in HEK 293T cells expressing human GIPR in assay [4] stood at 0.0066 nM.
